{"source": "paper PMC3249085", "about": "(The Journal of Biological Chemistry, 2011)", "molecular_target": "the molecule itself", "test": "small angle neutron scattering"}
{"protein": "outer membrane protein OmpF (receptor, partially deuterated (d-OmpF) in the SANS samples; hydrogenous or deuterated in the neutron reflection samples) AEIYNKDGNKVDLYGKAVGLHYFSKGNGENSYGGNGDMTYARLGFKGETQINSDLTGYGQWEYNFQGNNSEGADAQTGNKTRLAFAGLKYADVGSFDYGRNYGVVYDALGYTDMLPEFGGDTAYSDDFFVGRVGGVATYRNSNFFGLVDGLNFAVQYLGKNERDTARRSNGDGVGGSISYEYEGFGIVGAYGAADRTNLQEAQPLGNGKKAEQWATGLKYDANNIYLAANYGETRNATPITNKFTNTSGFANKTQDVLLVAQYQFDFGLRPSIAYTKSKAKDVEGIGDVDLVNYFEVGATYYFNKNMSTYVDYIINQIDSDNKLGVGSDDTVAVGIVYQF", "values": [{"measurement": "stoichiometry N", "value": 3}]}
